Source: the nanobody polyreactivity screen of Harvey et al. (2022)

Assay: yeast display, Sf9 membrane polyspecificity reagent, FACS + sequencing; frameworks hold sequencing errors
How it was run: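 Nanobodies came from a synthetic yeast display library in Saccharomyces cerevisiae BJ5465, induced with galactose for 36–48 hours and stained for 1 hour at 4 °C with 10% biotinylated, detergent-solubilized Sf9 membrane reagent. Cells were enriched on streptavidin microbeads and then FACS-sorted, with low and high (top ~1%) gates set on anti-HA fluorescence for expression and streptavidin fluorescence for reagent binding. Each polyreactivity label reflects the gate a clone came from. Genes were amplified by colony PCR, sequenced by MiSeq 2 × 250 and filtered by CDR length.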

| Sequence | polyreactivity (PSR sort gate) |
| --- | --- |
| QVQLVESGGGLVQAGGSLRLSCAASGYTFVIYAMGSYRQAPGKERELVAAITTIGGRTYYADSVKGRFTISRDNAKNTVYLQMNSLKPEDTAVYYCAADIRSNRLYDGGYWGLGTQVTVSS | low polyreactivity |
| QVQLVESGGGLVQAGGSLRLSCAASGYTFVIYAMGWYRQAPGKERELVAAITTIGGRTYYADSVKGRFTISRDNAKNTVYLQMNSLKPEDTAVYYCAADIRSNRLYDGGYWGQGTQVTVSS | low polyreactivity |
| QVQLVESGGGLVQAGGSLRLSCAASGYTFWDYTMGWYRQAPGKEREFVAAINWSGGSTYYADSVKGRFTISRDNAKNTVYLQMNSLKPEDTAVYYCAARRGGRRGYDYWGQGTQVTVSS | high polyreactivity |
| QVQLVESGGGLVQAGGSLRLSCAASGYTFWWYAMGWSRQAPGKERELVAAISIGGSTKYADSVKGRFTISRDNAKNTVYLQMNSLKPEDTAVYYCAAEVSYHYVPYGYWGQGTQVTVSS | low polyreactivity |
| QVQLVESGGGLVQAGGSLRLSCAASGYTFYFYAMGWSRQAPGKEREFVAAIRSSGGRTYYADSVKGRFTISRDNAKNNVYLQMNSLKPEDTAVYYCAAAGYYYSVDGAGPRYDYWGQGTQVTVSS | low polyreactivity |
| QVQLVESGGGLVQAGGSLRLSCAASGYTFYINTMGWYRQAPGKEREFVAAITWSGGSTYYADSVKGRFTISRDNAKNTVYLQMNSLIPEDTAVYYCAADLYVGDMDYWGQGTQVTVSS | low polyreactivity |
| QVQLVESGGGLVQAGGSLRLSCAASGYTFYLYAMGWYRQAPGKERELVAAISTNGGRTYYADSVKGRFTISRDNAKNTVYLQLNSLKPEDTAVYYCAVRSRGTAPQYYYWGQGTQVTVSS | high polyreactivity |
| QVQLVESGGGLVQAGGSLRLSCAASGYTFYRYAMGWYRQAPGKERELVASITRSGGSTYYADSVKGRFTISRDNAKNTVYLQMNSLKPEDTAVYYCAAEYEFGHSSTPMDYWGQGTQVTVSS | high polyreactivity |
| QVQLVESGGGLVQAGGSLRLSCAASGYTFYSNAMGWYRQAPGKERELVAVISRGGGTYYADSVKGRFTISRDNAKNTVYLQMNSLKPEDTAVYYCAASTFTYHWRYDYWGQGTEVTVSS | low polyreactivity |
| QVQLVESGGGLVQAGGSLRLSCAASGYTFYVYAMGWYRQAPGKERELVAAIRSGGTTYYADSVKGRFTISRDNAKYTVYLQMNSLKPEDTAVYYCAADVQDRYHRAWYDYWGQGTQVTVSS | low polyreactivity |
| QVQLVESGGGLVQAGGSLRLSCAASGYTFYYYAMGWYRQAPGKERELVAAISWSGGSTYYADSVKGRVTISRDNAKNTVYLQMNSLKPEDTAVYYCAAGVDLYYDLYDYEYWGQGTQVTVSS | low polyreactivity |
| QVQLVESGGGLVQAGGSLRLSCAASGYTFYYYAMGWYRQAPGKERELVAGISGRGGSTYYADSVKGRFTISRDNAKNTVYLQMNSLKPEDTAVYYCAATSPRAGTRRYEYWGQGTQVTVSS | high polyreactivity |
| QVQLVESGGGLVQAGGSLRLSCAASGYTIGIYAMGWYRQAPGKERELVAAISFSDGTTYYADSVKGRFTISRDNAKNTVYLQMNSLKPEDTAVYYCAAAAGGTVVGEGDYWGQGTQVTVSS | low polyreactivity |
| QVQLVESGGGLVQAGGSLRLSCAASGYTILIYAKGWYRQAPGKERELVASISRSGGSTYYADSVKGRFTISRDNAKNTVYLQMNSLKTEDTAVYYCNADFGYDSVVEYDYWGQGTQVTVSS | low polyreactivity |
| QVQLVESGGGLVQAGGSLRLSCAASGYTILTNAMGWYRQAPGKERELVADITSSGGSTYYADSVKGRFTISRDNAKNTVYLQMNSLKPEDTAVYYCAKRWYRNRYGYWGQGTQVTVSS | high polyreactivity |
| QVQLVESGGGLVQAGGSLRLSCAASGYTIYQYAMGWYRQAPRKERELVAAISSDASTSYADSVKGRFTISRDNAKNTVYLQMNSLKPEDTAVYYCAADPGPYYDWGYDYWGQGTQVTVSS | low polyreactivity |
| QVQLVESGGGLVQAGGSLRLSCAASGYTIYYYAMGWYRQAPGKERELVAVITSRGTRTYYADSVQGRFTISRDNAKNTVYLQMNSLKPEDTAVYYCNKARGVAYDWGQGTQVTVSS | high polyreactivity |
| QVQLVESGGGLVQAGGSLRLSCAASGYTLGDYAMGWYRQAPGKERELVAAISSGGITSYADSVKGRFTISRDNAKNTVYLQMNSLKPEDTAVYYCNAAIVGFTRAYQYDYWGQGTQVTVSS | high polyreactivity |
| QVQLVESGGGLVQAGGSLRLSCAASGYTLGDYSMGWYRQAPGKERELVAVITRNGGRTYYSDSVKGRFTISRDKAKNTVYLQMNSLKPEDTAVYYCNRDTSIRHYNYWGQGTQVTVSS | high polyreactivity |
| QVQLVESGGGLVQAGGSLRLSCAASGYTLGYYAMGWYRQAPGKERELVASITERGGSTYYADSVKGRFTISRDNAKNTVYLQMNSLKPEDTAVYYCAADWDPSWWLFPTSSYDYWGQGTQVTVSS | low polyreactivity |
| QVQLVESGGGLVQAGGSLRLSCAASGYTLRIYAMGWYRQAPGKEREMVAAISRSGGRTFYADSVKGRFTISRDNAKNTVYLQMNSLKPEDTAVYYCAADPRSYDTGRMDYWGQGTQVTVSS | high polyreactivity |
| QVQLVESGGGLVQAGGSLRLSCAASGYTLYQYAMGWYRPAPVKERELVAAISRRGGSTYYADSVKGRFTISRDNAKNTVYLLMNSLKPEDTAVYYCNNANLYRFWEMDYWGQGTQVSVSS | high polyreactivity |

| Sequence | polyreactivity (PSR sort gate) |
| --- | --- |
| QVQLVESGGGLVQAGGSLRLSCAASRFIFRRNAMGWYRQAPGKERELVAAITLSGGSTYYADSVKGRFTISRDNAKNTVYLQMKSLKPEDTAFYFCAARPGYYTRYDYWGQGTQVTVSS | low polyreactivity |
| QVQLVESGGGLVQAGGSLRLSCAASRFIFSVYTMGSYIQAPGKERELVAAISSGPSTTYADSVKGRFTISRDNAKNTVYLQMNSLKPEDTAVYYCARRDGTTQALFGYDYWGLGTQVTVSS | low polyreactivity |
| QVQLVESGGGLVQAGGSLRLSCAASRFTIIPYDMGRYRQAPGKERELVATISRGGSTNYADSVKGRFTISRENAKNTVYLQMNSLKPEDTAVYYCAAEYKVVFSQPYCEYDYWGQGTQVTVSS | low polyreactivity |
| QVQLVESGGGLVQAGGSLRLSCAASRLTFSYYAMGWYRQAPGKERELVAAISERGGSTYYADSVKGRFTISRDNAKNTVYLQMNSLKPEDTAVYYCAADFVYGTRDDSWGQGTQVTVSS | high polyreactivity |
| QVQLVESGGGLVQAGGSLRLSCAASRNIFDTYVMGWYRQAPGKETELVAANTSDGGTYYADSVKGRFTISRDNAKNTVFFQMNSLKPVDTAVYSCAADTYYYPIHDYWGQGTQVTVSS | low polyreactivity |
| QVQLVESGGGLVQAGGSLRLSCAASRRIFSQYAMGWSRQAPGKERELVAAITWRGASTYYADSVKGRFTISRDNAKNTVYLQMNSLKPEDTAVYYCAAGYPPGRYYRVRWVGYWGQGTQVTVSS | high polyreactivity |
| QVQLVESGGGLVQAGGSLRLSCAASRRTFKPYAMGWYRQAPGKERELVARISGSGGSTYYADSVKGRFTISRDNAKNTVYLQMNSLKPEDTAVYYCATTPYYWFDYWGQGTQVTVSS | low polyreactivity |
| QVQLVESGGGLVQAGGSLRLSCAASRRTYWYNAMGWYRQSPGKERELVAAISRAGRTYYADSVKGRFTISRDNAKNTVYIQMNSLKPEDTAVYYCNVVLFGDSGNLQYYYWGQGTQVTVSS | high polyreactivity |
| QVQLVESGGGLVQAGGSLRLSCAASRSIFSWYAMGWYRTAPGTERELVAAITWTGGSTYYADSVKGRFTISRDNAKNTVYLQMKSLKTEDTAVYYCAARRVVYRKYGDRGRWYNYWGQGTQVTVSS | high polyreactivity |
| QVQLVESGGGLVQAGGSLRLSCAASRSIFSYNAMGWYRQAPGKGREFVAAITSSGTRKYYADSVQGRFTISRDNAMNTVYLQLNSLKPEDTAVYYCAADLRYDYWGQGTQVPVSS | high polyreactivity |
| QVQLVESGGGLVQAGGSLRLSCAASRSIFYINAMGWYRQEPGKEMELVAAITSDGSTYYADSVKGRFTISRDNAKNTVYLQMNSLKPEDTAVYYCAADLTSDQYLYYWYWFYSWGQGTQVTVSS | low polyreactivity |
| QVQLVESGGGLVQAGGSLRLSCAASRSNFQFYAMGWYRQAPGTERELVAVISTRGGSTYYADSVKGRFTISRDKAKNTVYLQMYSLKPEDTAVYYCAAKSVYRMGYWGQGTQVTVSS | high polyreactivity |
| QVQLVESGGGLVQAGGSLRLSCAASRSTFPFYAMGWYRQAPGKERELVAAITSGGSTYADSVKGRFTISRDNAKNTVYLQMNSLKPEDTAVYYCAASWPRWWRFGYWGQGTQVTVSS | low polyreactivity |
| QVQLVESGGGLVQAGGSLRLSCAASRSTFTGNAMGWYRQAPGNERELVASINGSSGSTYYADSVKGRFTISRDNAKNTVYLQMNSLKPEDTAVYYCAKDSFLHFPRVGWVGLEYWGQGTQVTVSS | low polyreactivity |
| QVQLVESGGGLVQAGGSLRLSCAASVFIFDRYAMGWYRQAPGKERELVAAISSGGSTYYADSVKGRFTISRDNAKNTVYLQMNSLKPEDTAVYYCAAESWLNFIYEYDYWGQGTQVTVSS | low polyreactivity |
| QVQLVESGGGLVQAGGSLRLSCAASVFTFQYYAMGWYRQAPGKERELVAAISRRGGRTDYADSVKGRFTISRDNAKNTVYLQMNSLKPEDTAVYYCARDPGAFEYWGQGTQVTLSS | high polyreactivity |
| QVQLVESGGGLVQAGGSLRLSCAASVIIFNLYAMGWYRQAPGKERELVAAISWSGGSTYYADSVKGRFTISRDNAKNTVYLQMNSLKPEDPAVYYCATSFLYPYFDEDDYWGQGTQVTVSS | high polyreactivity |
| QVQLVESGGGLVQAGGSLRLSCAASVITFWIYAMGWYRQAPGKERELVAAITGRGGSTYYADSVKGRFTISRDNAKNTVYLQLNSLKPEDTAFYYCAAESWYSTYDYWGQGTQVTVTS | high polyreactivity |
| QVQLVESGGGLVQAGGSLRLSCAASVLIFDGYAMGWYRQAPGKEREFVADIDFGGGSTYYADSVKGRFTISRDNAKNTVYLQMNSLKPEDTAVYYCNAVWDDYGFYSPYVVVEYDYWGQGTQVTVSS | high polyreactivity |
| QVQLVESGGGLVQAGGSLRLSCAASVLIFHTYGMGWYRQAPGKERELVADITDGGSTYYADSVKGRFTISRDNAKNTVYLQMNSLKPEDTAVYYCAADERGVFLTYWYFWYDYWGQGTQETVSS | low polyreactivity |
| QVQLVESGGGLVQAGGSLRLSCAASVLIIWLYTMGWYRQAPGKERELVAAIDWSGGSTYYADSVKGRFTMSRDIAKNTVYLQMNRLKPEDTAVYYCAADPEPSYRFDYGGQGTQVTVSS | low polyreactivity |
